One assay has as its target T1, 6His–Cdc14p (budding yeast, UniProt Q00684 1-551).
T1 sequence: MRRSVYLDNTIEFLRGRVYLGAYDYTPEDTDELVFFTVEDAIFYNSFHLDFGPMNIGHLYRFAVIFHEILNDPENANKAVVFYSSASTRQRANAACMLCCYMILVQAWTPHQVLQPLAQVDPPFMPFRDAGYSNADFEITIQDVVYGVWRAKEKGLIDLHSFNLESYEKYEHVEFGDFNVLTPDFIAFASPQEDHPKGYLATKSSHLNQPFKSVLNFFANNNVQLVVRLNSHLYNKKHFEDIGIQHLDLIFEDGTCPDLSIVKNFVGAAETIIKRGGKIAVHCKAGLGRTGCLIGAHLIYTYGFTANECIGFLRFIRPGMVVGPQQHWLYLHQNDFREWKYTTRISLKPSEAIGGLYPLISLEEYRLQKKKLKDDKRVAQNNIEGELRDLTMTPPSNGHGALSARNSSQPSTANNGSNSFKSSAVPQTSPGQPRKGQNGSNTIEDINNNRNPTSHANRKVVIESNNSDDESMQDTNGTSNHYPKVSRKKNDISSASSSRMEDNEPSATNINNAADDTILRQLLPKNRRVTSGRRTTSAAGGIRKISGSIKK
Kind of assay: pull-down.

Another assay concerns the target T2, GST–Cdc14p (budding yeast, UniProt Q00684 1-551).
T2 sequence: T1 sequence
The experiment in a line: pull-down.

B1: GST–Bfa1p^1–394 (domain or fragment)
chain: MSIRPLTLNGLDEPETSFEELNTTLPRFQSHETLTLEENVPPLSTSTYIPPPSSVGTSDTGTVFSNSTSAFWSNKQADDDQDMEVDQDDEFLNDFQEFQNKKDDFDDAIKTNFHLRNGCRTGPFKNDIFAEEFDRKLSLEDKPRLKQPRSMMELKPKRKLSNSVTSRNLRSGNSVRFKKSMPNLALVNPAIREEEEDEEREREDQREFNYKIDNDTQDTILAKFSSDDEGDFLTGFEELEGEAIDETISSNDKESADHPRFLKKSSSSLPLKISPAQYDIVKHDELLTPGLHRRQRDWNTQQELDSFKEKRSVRHCSNQNVQLNGPAKIKTIKQQIDHNTPMKKGSMIYNPKTMKWEGNENVLSKFSDVDTANRKALLIKNKLQRDADSKKQKY
Regarding B1, in the assay with 6His–Cdc14p, the binding result is “binds”.

B2: 6His–Tem1p (natural protein)
chain: MATPSTGANNSIPAVRNQVEVQVGLVGDAQVGKTSLMVKYVQNIYDKEYTQTLGVNFLKRKVSIRSTDIIFSIMDLGGQREFINMLPIATVGSSVIIFLFDLTRPETLSSIKEWYRQAYGLNDSAIPILVGTKYDLLIDLDPEYQEQISRTSMKYAQVMNAPLIFCSTAKSINIQKIFKIALAKIFNLTLTIPEINEIGDPLLIYKHLGGQQHRHHNKSQDRKSHNIRKPSSSPSSKAPSPGVNT
For B2, the binding result with GST–Cdc14p is given as “binds”.

The values are drawn from PMC2173300 (The Journal of Cell Biology, 2002).
